Data taken from paper PMC8318374.

Target: GFP-CC-tet-KLC1E^CTD (de novo-designed coiled-coil tetramer between GFP and KLC1E^CTD) (mouse)
Test: cross-linking

stoichiometry N: 4
Substance: GFP-CC-tet-KLC1E^CTD (de novo-designed coiled-coil tetramer between GFP and KLC1E^CTD)
